Experimental data from publication doi:10.1101/2024.06.07.597859 (bioRxiv, 2024).
Values joined by “and” are separate entries in the source; they are usually repeats but may differ in a detail not shown here. Equal entries are not always repeated.

Molecular target: the molecule itself
Assay: cross-linking

B1: Plasmodium falciparum tRNA-splicing endonuclease PfTSEN1 (enzyme, UniProt A0A144A1E9 1-220, looked up)
chain: MKIIYEFKKEYYEIILNENNADDNVIDLFEKNTNKCNIEIKPYDDINSDLLDFDQFKMFNIDKDDIKKKNEDKKDEDRIKYILDKESYNNSIDKLNDNSCDESCYITDDELCKQINNPFDNTYNNKFVVKYKEYFEENSFIVKKGDIYGADFLLYITEQKYAHSLYAVYIIYKHYILRDLIRILRVSHSIKKKVILILWNELNCFNISDTLVYIKSYKYK
B1 was tested. Which “stoichiometry N” value did it give?
Its value is 2 and 3 and 4.
